The results in this text go back to paper PMC6581707.

For assay [1], the target named is CS/DS 4-O-endosulfatase endoVB4SF from Vibrio sp. FC509 (Vibrio sp. FC509). Kind of assay: SEC; Superdex 200 10/300 GL, 10 mM Tris-HCl, 100 mM NaCl, pH 8.0, with or without 5 mM DTT; detection at 280 nm; monomer to dimer.
Assay [2] concerns the target exoPB4SF-Q5C mutant (Photobacterium sp. FC615). Described as above.

The stoichiometry N is the number of molecules, sites or subunits per partner or assembly.

For the substance “CS/DS 4-O-endosulfatase endoVB4SF from Vibrio sp. FC509 (enzyme)”, the stoichiometry N in assay [1] was 2.
Turning to exoPB4SF-Q5C mutant (enzyme), in assay [2], the stoichiometry N turned out to be 2.
